In PMC4335406:

Columns and labels:
[1] = target: DsLOV, short LOV protein from Dinoroseobacter shibae DFL12T (Dinoroseobacter shibae DFL12T); assay: SEC; analytical size-exclusion chromatography; data not shown; conditions not given
[2] = target: DsLOV, short LOV protein from Dinoroseobacter shibae DFL12T (Dinoroseobacter shibae DFL12T); assay: small angle X-ray scattering (SAXS); 7.2 and 14.8 mg/ml DsLOV in 10 mM NaH2PO4, 300 mM NaCl, pH 8.0, 10°C; beamline BM29, ESRF

stoichiometry N [1]: 2 | stoichiometry N [2]: 2
Substance: DsLOV, short LOV protein from Dinoroseobacter shibae DFL12T (natural protein)
